Test results as given in US20140315215A1 (SECRETARY OF STATE FOR HEALTH, published 2014).

Target: T1, hen egg lysozyme (hen, UniProt P00698 19-147)
T1 construct: Antigen immobilised on the microtitre plate in all ELISAs; also called HEL
Assay: ELISA on immobilised HEL, tAK activity read-out; fusion extracted with glutathione and heat treated, compared with the BSA control
Method: FIG. 1 illustrates functional recovery of correctly folded single-domain antibody (VNAR) in the presence of the Sac tAK domain and glutathione. The fusion proteins were assessed for their ability to bind to hen egg lysozyme immobilized onto a microtitre plate in an ELISA format, using the tAK activity as the assay read-out. In each case background binding was measured using BSA as a non-relevant antigen control. In the case of Tma tAK fusions, no significant increase in binding was observed above the background binding to BSA with either glutathione extraction, heat treatment or a combination of the two.

T1 sequence (P00698 19-147): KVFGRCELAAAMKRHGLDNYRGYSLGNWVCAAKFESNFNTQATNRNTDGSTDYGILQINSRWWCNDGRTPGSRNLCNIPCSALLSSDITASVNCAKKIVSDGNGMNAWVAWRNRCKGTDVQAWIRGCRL

B1: SacAK-F3-VNAR fusion protein (Sulfolobus acidocaldarius adenylate kinase, [GGGGS]3 flexible linker F3, hen egg lysozyme specific shark VNAR) (VNAR)
chain: MLATALKLGYAKDRDEMRKLSVEKQKKLQIDAAKGIAEEARAGGEGYLFIDTHAVIRTPSGYLPGLPSYVITEINPSVIFLLEADPKIILSRQKRDTTRNRNDYSDESVILETINFARYAATASAVLAGSTVKVIVNVEGDPSIAANEIIRSMKQSTGGGGSGGGGSGGGGSGSARVDQTPRSVTKETGESLTINCVLRDASYALGSTCWYRKKSGSTNEESISKGGRYVETVNSGSKSFSLRINDLTVEDGGTYRCGLGVAGGYCDYALCSSRYAECGDGTAVTVN
notes: also called Sac tAK fusions; the fusion
- fold increase in binding: ~10 fold
